From patent US20220378949A1, “NEUROTROPHIN RECEPTOR BINDING CONJUGATE COMPOSITIONS, METHODS OF USE AND METHODS OF MAKING THEREOF” (priority 2019, published 2022)
Values belong to the molecule of their own block, whether it stands above or below them.

Assays:
[1] = test system: superior cervical ganglia (SCG) neurons; assay: Retrograde axonal transport of 800-rhNGF in Xona microfluidic chambers, LI-COR Odyssey imaging; assay type: cell-based, rat; details: 30 ng/mL at distal axons, 48 hours
From the text: (§1) Increasing conjugation leads to decreased protein conjugate solubility. A construct where the active agent has a greater molecular weight and less hydrophilic Dyomics DY-800 Near InfraRed (NIR) dye was attached directly to recombinant human NGF (rhNGF) (FIG. 2). In subsequent studies, we purified DAR sub-species using a (Waters column) reverse phase HPLC (RP-HPLC). […] Cultures were maintained until the axons extended through the channels in the microfluidic chambers to the side without cells plated. FIG. 2B depicts 800-rhNGF, 30 ng/mL was added to the wells where the terminal (distal) axons had extended. 48 hours after addition of 800-rhNGF to distal ends in left chambers, chambers were imaged on a LI-COR Odyssey scanner. […] FIGS. 2C and 2D depict brightfield images of wells containing cell bodies, showing improved visualization of cell clumps for comparison to images containing 800 NIR cell bodies. Neuronal Survival Confirms TrkB Binding Activity is Intact after Synthetic Manipulation.

[2] = administered sub-cutaneously (SQ); cited from earlier work
[3] = Stability of rhNGF in plasma; assay type: in vitro ADME; details: 37° C.
From the text: As an example of an intracellularly active small molecule compound (SMC), the glucocorticoid fluocinolone acetonide (FA) was conjugated using a heterobifunctional linker to rhNGF and rhBDNF, both of which constructs exerted analgesic (anti-inflammatory) activity in vivo. Dorsal Root Ganglia (DRG) in diseases of the peripheral nervous system (PNS) play a fundamental role in chronic pain generally. NGF and BDNF localize due to their selectivity for distinct populations of peripheral neurons by binding to TrkA and TrkB expressed largely in nociceptors and proprioceptors, respectively. In treating forms of pain in which the DRG are involved, either NGF and/or BDNF should deliver intracellularly active FA by axonal transport to subpopulations of sensory neuron cell bodies in DRG and via their central synaptic terminals, into the dorsal horn of the spinal cord. Since TrkB is highly expressed in the neurofilament-1-expressing subpopulation of low-threshold mechanosensory neurons in the DRG, peripherally injected BDNF should deliver FA to the DRG. In treating pain, FA may alter neuronal excitability to be released or diffuse, acting on nearby inflammatory cells e.g. microglia, astrocytes, or satellite glia. rhNGF is stable in plasma for up to 4 days at 37° C.

[4] = test system: Retinal Ganglion Cells (RGCs); assay: Neuronal survival of primary Retinal Ganglion Cells with labeled rhBDNF (TrkB binding intact); assay type: cell-based, rat
Protocol: Labeled BDNF test articles, either 800-rhBDNF or FA-rhBDNF, were also assessed to as to whether the compositions would sustain neuronal survival by plating conjugates in Retinal Ganglion Cells (RGCs). RGCs were isolated from P6 rats by sequential immune-panning. Retinas are isolated and enzymatically digested by papain followed by mechanical dissociation into a single-cell suspension. Cells are negatively panned to remove macrophages and other nonspecifically adhering cells and then positively panned for RGCs using the Thy1.1 T11D7 hybridoma supernatant.
as §1
High Performance Liquid Chromatography and mass spectrometry was used to quantify the number of dye molecules attached or crosslinked to rhBDNF (i.e., the ratio of fluorescent dye in the 800 region to rhBDNF).

[5] = test system: superior cervical ganglia (SCG) neurons; assay: Neuronal survival assay in primary superior cervical ganglia neurons (compartmented cultures / microfluidic devices); assay type: cell-based, rat; details: FIG. 4 and FIG. 1C
Protocol: In vitro systems that use primary neurons express Trk receptors on distal ends were used so that both survival and Trk binding activity may be assessed following synthetic manipulation in producing conjugates.
Confirm Trk receptor binding. […] Receptor binding activity where up to 100× unmodified mNGF is co-administered with the Trk binding agent was determined. […] FIG. 1C: Neurons in compartmented cultures were given approximately 10 ng/mL fNGF (as determined by neuronal survival bioassay), or 10 ng/mL fNGF+100× excess unlabelled NFG (1000 ng/mL) in the distal axon compartments. 24 hours later fluorescence images of the cell bodies were obtained (FIG. 1C). […] Survival. […] SGC neurons were harvested from E-21 Sprague Dawley rat pups.
DAR analytics were calculated using Reverse Phase High Performance Liquid Chromatography (RP-HPLC) and/or mass spectroscopy (MS). […] (FIG. 5)

TrkA receptors = biological target: T1, TrkA receptors (Rattus norvegicus, UniProt P35739); assay: Uptake and retrograde transport of fluorescent NGF in compartmented cultures of SCG neurons, competition with unlabelled NGF; assay type: cell-based; details: for Uptake of fluorescent NGF at distal ends of neurons (TrkA-mediated endocytosis): distal axon compartments, SCG neurons
T1 construct: In vitro systems that use primary neurons express Trk receptors on distal ends were used; endogenous in cells
T1 sequence (P35739 33-799): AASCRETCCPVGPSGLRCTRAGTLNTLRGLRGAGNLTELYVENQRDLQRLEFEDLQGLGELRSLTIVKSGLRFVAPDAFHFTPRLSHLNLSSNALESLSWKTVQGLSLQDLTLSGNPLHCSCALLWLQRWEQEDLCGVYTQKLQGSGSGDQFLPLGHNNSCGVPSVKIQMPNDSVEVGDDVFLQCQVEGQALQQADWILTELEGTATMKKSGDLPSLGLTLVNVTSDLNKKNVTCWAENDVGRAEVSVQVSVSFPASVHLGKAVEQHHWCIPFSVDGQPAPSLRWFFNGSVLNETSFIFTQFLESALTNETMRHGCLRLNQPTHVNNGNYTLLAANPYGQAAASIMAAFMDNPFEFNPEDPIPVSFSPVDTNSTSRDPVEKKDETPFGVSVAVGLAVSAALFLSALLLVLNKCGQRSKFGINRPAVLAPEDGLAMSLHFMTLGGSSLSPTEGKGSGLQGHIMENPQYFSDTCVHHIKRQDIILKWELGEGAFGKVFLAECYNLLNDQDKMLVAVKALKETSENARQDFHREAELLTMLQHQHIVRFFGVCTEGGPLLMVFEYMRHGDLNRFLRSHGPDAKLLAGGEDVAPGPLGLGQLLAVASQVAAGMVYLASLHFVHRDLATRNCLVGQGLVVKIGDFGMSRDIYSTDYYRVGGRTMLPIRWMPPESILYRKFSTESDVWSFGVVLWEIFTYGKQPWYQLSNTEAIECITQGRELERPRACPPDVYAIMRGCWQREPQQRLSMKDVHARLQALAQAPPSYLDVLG
Protocol: Confirm Trk receptor binding. […] Receptor binding activity where up to 100× unmodified mNGF is co-administered with the Trk binding agent was determined. 488-mNGF (FIG. 1A) is shown in cell bodies, after binding to TrkA, endocytosis and transport to the central chamber of the in vitro system. In FIG. 1B, TrkA was confirmed here by adding 1000 ng/ml unmodified mNGF to compete with 100 ng/ml 488-mNGF for the same TrkA receptors. FIG. 1C: Neurons in compartmented cultures were given approximately 10 ng/mL fNGF (as determined by neuronal survival bioassay), or 10 ng/mL fNGF+100× excess unlabelled NFG (1000 ng/mL) in the distal axon compartments. 24 hours later fluorescence images of the cell bodies were obtained (FIG. 1C). […] Alexa Fluor requirement for DAR<4 per mouse NGF monomer. Fluorescent dye Alexa Fluor 488, which due to its size and hydrophobicity is attached to NGF without using a spacer of any length binds to TrkA, is endocytosed after binding, and is transported retrogradely to the neuronal cell body. In FIG. 4, we show in vitro results for a “mixed DAR” 800-rhNGF of 1.64 which is expressed as an average of 1-4 dye molecules per monomer using standard analytical methods mass spectroscopy (MS) or high performance liquid chromatography (HPLC), in each case where the NT involved is a dimer. […] Survival. […] SGC neurons were harvested from E-21 Sprague Dawley rat pups.

[6] = average ratio of about 3.1 per monomer

Molecule: 800-rhNGF: Dyomics DY-800 Near InfraRed (NIR) dye attached directly to recombinant human NGF (rhNGF)
- Retrograde transport to cell bodies (800 NIR labelled cell bodies visualized) [1]: retrogradedly transported

Molecule: rhNGF: recombinant human NGF (nerve growth factor)
- Maximum Tolerated Dose (MTD) [2]: 1 µg/kg
- Stability in plasma (time stable) [3]: up to 4 days

B1: 800-rhBDNF: NIR dye in the 800 region directly attached to rhBDNF (conjugate, UniProt P23560 19-247, looked up)
Neurotrophic factor BDNF …: APMKEANIRGQGGLAYPGVRTHGTLESVNGPKAGSRGLTSLADTFEHVIEELLDEDQKVRPNEENNKDADLYTSRVMLSSQVPLEPPLLFLLEEYKNYLDAANMSMRVRRHSDPARRGELSVCDSISEWVTAADKKTAVDMSGGTVTVLEKVPVSKGQLKQYFYETKCNPMGYTKEGCRGIDKRHWNSQCRTTQSYVRALTMDSKKRIGWRFIRIDTSCVCTLTIKRGR
modifications: NIR 800 dye
notes: NIR dye in the 800 region directly attached to rhBDNF
- Neuronal survival in primary neurons of Retinal Ganglion Cells ([4]; FIG. 3): sustained neuronal survival
- Intraneuronal uptake [4, 6]: intraneuronal uptake
- Trk binding [4, 6]: Trk binding

- Accumulation of fluorescence in the cell bodies with 100× excess unlabelled NGF (TrkA receptors; 10 ng/mL fNGF + 1000 ng/mL unlabelled NGF in distal axon compartments, 24 hours): effectively inhibited
- Uptake of fluorescent NGF at distal ends of neurons (TrkA-mediated endocytosis) (TrkA receptors): endocytosed at the distal ends
- Uptake of fluorescent NGF at distal ends of neurons (TrkA-mediated endocytosis) (TrkA receptors; listed as fNGF): specific, TrkA receptor-mediated process
B2: 488-mNGF: fluorescent dye Alexa Fluor 488 attached to murine NGF (conjugate, UniProt P01139 122-241, looked up)
Beta-nerve growth factor: SSTHPVFHMGEFSVCDSVSVWVGDKTTATDIKGKEVTVLAEVNINNSVFRQYFFETKCRASNPVESGCRGIDSKHWNSYCTTTHTFVKALTTDEKQAAWRFIRIDTACVCVLSRKATRRG
modifications: Alexa Fluor 488 dye
notes: fluorescent dye Alexa Fluor 488 attached to murine NGF
- Survival of neurons [5]: sustained the survival of neurons
